Measurements taken from patent publication US10655124B2, “Proximity based methods for selection of binding partners” (THE SCRIPPS RESEARCH INSTITUTE, priority 2014, dated 2020).

How the values were obtained:
[1] = target: glucagon-like peptide 1 receptor (GLP1R) (Homo sapiens, UniProt P43220); experiment: Proximity based reaction assay, GLP1R-TEV cleavage site-transcription factor cell line, luciferase reporter; conditions: for S/N ratio and noise with different TEV cleavage sites: GLP1R (1-426) constructions, Exendin-4 ligand, 1-3 days post infection
GLP1R = target: T1, GLP1R (Homo sapiens, UniProt P43220); experiment: Proximity based reaction assay, GLP1R constructions, tdTomato reporter, fluorescent microscopy; type: cell-based
T1 construct: Four TEV cleavage sites that are cleaved with varying efficiency were used for the GLP1R (1-426) constructions; expressed in transfected cells
Description: Stable cell lines containing the tdTomato reporter gene under control of UAS and GLP1R constructions with different TEV cleavage sites were studied.

CXCR4 = CXCR4 (Homo sapiens, UniProt P61073); experiment: Proximity based reaction assay with irrelevant receptor CXCR4 replacing GLP1R; type: cell-based; conditions: irrelevant G protein-coupled receptor control
[2] = test system: glucagon-like peptide 1 receptor (GLP1R); experiment: Proximity based reaction assay, GLP1R-TEV cleavage site-transcription factor cell line, luciferase reporter; conditions: orthogonal control for non-specific interactions; membrane displayed ligand
[3] = target: T2, Thrombopoietin receptor (TpoR) (Homo sapiens, UniProt P40238); experiment: Proximity based reaction assay, TpoR-TEV cleavage site-transcription factor cell line, luciferase reporter
T2 construct: The coding region of TpoR or GLP1R was followed by the TEV protease cleavage site and the GAL4-VP16 transcription factor; expressed in transfected cells
T2 sequence (P40238 26-635): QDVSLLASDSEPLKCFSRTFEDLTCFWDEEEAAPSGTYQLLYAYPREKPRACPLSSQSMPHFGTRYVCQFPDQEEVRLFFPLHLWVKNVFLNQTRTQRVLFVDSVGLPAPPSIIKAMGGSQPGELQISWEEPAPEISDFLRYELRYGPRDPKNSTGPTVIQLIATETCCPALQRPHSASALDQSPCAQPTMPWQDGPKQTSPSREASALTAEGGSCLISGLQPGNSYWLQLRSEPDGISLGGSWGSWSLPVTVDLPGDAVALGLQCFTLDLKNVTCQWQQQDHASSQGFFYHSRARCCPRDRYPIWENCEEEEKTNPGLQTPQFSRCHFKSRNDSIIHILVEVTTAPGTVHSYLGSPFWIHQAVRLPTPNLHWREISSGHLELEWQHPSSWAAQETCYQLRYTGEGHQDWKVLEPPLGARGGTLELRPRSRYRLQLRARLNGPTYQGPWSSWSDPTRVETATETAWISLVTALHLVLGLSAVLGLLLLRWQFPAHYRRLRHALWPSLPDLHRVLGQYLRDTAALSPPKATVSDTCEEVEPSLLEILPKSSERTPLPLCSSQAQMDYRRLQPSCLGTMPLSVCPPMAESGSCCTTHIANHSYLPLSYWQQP
Description: FIG. 2. Proximity based identification of Thrombopoietin receptor (TpoR) activation. Stable cell lines harboring the luciferase reporter gene under control of UAS and TpoR-TEV cleavage site-transcription factor were established. Cells were transduced with lentivirus encoding Thrombopoietin (TPO) or the TpoR binding antibodies 3D9 or 14F12. Genes encoding different linkers including 3, 5, 6, 8, or 10 copies of (GGGGS) (SEQ ID NO:1) or a human IgG1 Fc were placed between the ligand and PDGFR trans-membrane domain. Luciferase activities were measured 2 days post infection. The cell line harboring GLP1R-TEV cleavage site-Transcription factor was used as negative cell control. The reaction was controlled by measuring the luminescence signals from control lentivirus carrying irrelevant antibodies with the same linker type and length.
The stable cell line harboring both the UAS-reporter gene and receptor-cleavage site-transcription factor was plated in a 96 well plate at 20000 cells per well. Cells were infected by lentivirus carrying the ligand-TM-TEV protease at MOI equal to 1. Cells were cultured for 24-72 h before measuring the reporter gene activity. Luciferase activity was determined by using a luciferase assay system (Promega) while expression of tdTomato was observed by fluorescent microscopy.
A similarly constructed irrelevant antibody was used as a negative control. […]

glucagon-like peptide 1 receptor (GLP1R) (Homo sapiens, UniProt P43220), sequence (P43220 24-426): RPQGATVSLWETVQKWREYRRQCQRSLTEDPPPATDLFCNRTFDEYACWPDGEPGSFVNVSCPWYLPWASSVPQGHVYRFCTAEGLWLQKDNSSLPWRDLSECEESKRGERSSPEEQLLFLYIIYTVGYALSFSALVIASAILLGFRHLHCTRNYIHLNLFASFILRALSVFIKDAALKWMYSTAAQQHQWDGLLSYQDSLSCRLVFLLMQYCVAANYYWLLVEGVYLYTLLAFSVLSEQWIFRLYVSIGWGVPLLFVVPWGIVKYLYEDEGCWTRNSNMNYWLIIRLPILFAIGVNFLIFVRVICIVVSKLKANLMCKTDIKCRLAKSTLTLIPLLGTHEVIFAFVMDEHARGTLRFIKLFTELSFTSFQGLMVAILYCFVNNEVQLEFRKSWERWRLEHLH
T1 sequence (P43220 24-426, species assumed): as the sequence (P43220 24-426) above
CXCR4, sequence (P61073 whole entry, species assumed): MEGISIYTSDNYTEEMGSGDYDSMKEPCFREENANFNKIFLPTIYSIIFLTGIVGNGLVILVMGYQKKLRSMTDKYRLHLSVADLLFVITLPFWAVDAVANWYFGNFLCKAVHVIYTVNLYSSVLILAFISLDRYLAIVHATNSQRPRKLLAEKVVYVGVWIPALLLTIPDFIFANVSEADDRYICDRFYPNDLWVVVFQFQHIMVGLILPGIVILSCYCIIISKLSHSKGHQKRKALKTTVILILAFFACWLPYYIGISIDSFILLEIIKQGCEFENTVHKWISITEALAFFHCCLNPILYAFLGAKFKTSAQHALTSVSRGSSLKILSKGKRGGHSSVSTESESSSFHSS

## ENFYFQS (SEQ ID NO:5) [TEV 2]
[1]
  S/N ratio and noise with different TEV cleavage sites: highest S/N ratio
GLP1R
  background with different TEV cleavage sites, tdTomato reporter: much lower background

## ENLFFQS (SEQ ID NO:7) [TEV 4]
[1]
  S/N ratio and noise with different TEV cleavage sites: very high level of noise

## ENLYFQS (SEQ ID NO:4) [TEV1]
[1]
  S/N ratio and noise with different TEV cleavage sites: very high level of noise

## ENLYYQS (SEQ ID NO:6) [TEV 3]
GLP1R
  background with different TEV cleavage sites, tdTomato reporter: much lower background

## Exendin-4
CXCR4
  response when CXCR4 replaced the GLP1R: no response

## Thrombopoietin [TPO]
[2]
  signal in cells bearing the wrong receptor (GLP1R-transcription factor fusion cell line): did not increase the signal
[3]; ligand displayed at plasma membrane via PDGFR TM-TEV protease, lentivirus, luciferase 2 days post infection
  transcription factor mediated signal relative to the irrelevant antibody control: increased the transcription factor mediated signal
[3]; tandem repeats of GGGGS linker
  effect of linker length between ligand and TM domain on proximity-based signal: generated similar signals

## Vc1.1
[1]
  signal to noise (S/N) ratio, non-specific peptide control: even lower S/N
